B1: library; numbered along this chain (parent)
chain: MATDAALRRLLRLHRTEIAVAVDSAFPLLHALADHDVVPEDKFQETLHLKEKEGCPQAFHALLSWLLTQDSTAILDFWRVLFKDYNLERYGRLQPILDSFPKDVDLSQPRKGRKPPAVPKALVPPPRLPTKRKASEEARAAAPAALTPRGTASPGSQLKAKPPKKPESSAEQQRLPLGNGIQTMSASVQRAVAMSSGDVPGARGAVEGILIQQVFESGGSKKCIQVGGEFYTPSKFEDSGSGKNKARSSSGPKPLVRAKGAQGAAPGGGEARLGQQGSVPAPLALPSDPQLHQKNEDECAVCRDGGELICCDGCPRAFHLACLSPPLREIPSGTWRCSSCLQATVQEVQPRAEEPRPQEPPVETPLPPGLRSAGEEVRGPPGEPLAGMDTTLVYKHLPAPPSAAPLPGLDSSALHPLLCVGPEGQQNLAPGARCGVCGDGTDVLRCTHCAAAFHWRCHFPAGTSRPGTGLRCRSCSGDVTPAPVEGVLAPSPARLAPGPAKDDTASHEPALHRDDLESLLSEHTFDGILQWAIQSMARPAAPFPS

Variants of: B1
Assay: AIRE transcriptional activation functional score (insulin promoter-GFP; nonsense median 0, synonymous median 1) (normalised score); higher = higher AIRE activity (more reporter activation)
Conditions: with insulin promoter-GFP reporter in HEK293
Procedure: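 Deep mutational scan of full-length human AIRE (codon-optimized cDNA, DT-POPCode NNN libraries over three regions) integrated at a Bxb1 landing pad in HEK293 cells carrying an insulin core promoter-GFP reporter at a Flp-In site. Cells were sorted for the top 10% GFP about 14 days after transfection. Variant frequency log-ratios (select vs non-select, TileSeq) were rescaled so that the nonsense median is 0 and the synonymous median is 1, then averaged over biological replicates.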

AIRE transcriptional activation functional score of substitutions, site by site:
G178: N 0.294, W 0.64, R 1.49, V 1.28, Y 1.89, C 1.22, I 1.74, K 0.788, L 1.58, A 0.405, E 0.493, T 1.11, Q 0.33, F 1.08, S 1.26, M 1.65, P 0.532, D 0.549
Q182: E 1.46, S 1.05, G 0.423, K 1.73, Y 0.181, H 1.91, F -0.279, L 0.0585, P 0.264, N 1.54, C 1.4, I -0.398, M 0.383, W 0.0615, T 1.69, R 1.3, V -0.0151, D 0.345, A 1.52
L177: V 0.75, A 0.839, S 0.553, C 0.72, Y 1.89, K 1.09, R 0.707, N 0.575, P 0.397, I 0.748, D 0.322, W 2.38, G -0.4, M 1.57, H 1.01, F 1.5, T 0.252, Q 0.719, E -0.132
Q173: L 1.52, E 0.663, V 1.32, T 1.44, Y 1.93, R 1.67, C 1.51, H 0.885, M 2.11, A 0.957, F 1.97, S 1.34, P 1.05, I 1.45, G 0.757, D 0.988, K 1.44, N 1.68, W 1.54
Q172: Y 1.7, G 0.609, E 0.286, H 1.81, I 2.08, C 1.13, P 0.611, M 2.4, S 0.645, K 0.844, L 1.55, A 0.74, T 1.56, W 1.71, F 1.82, R 1.46, V 1.18, D 1.14, N 0.691
S185: H -0.313, I 0.353, Y 0.264, K 1, D 0.436, P 0.302, T 1.56, L -0.0826, F 0.468, Q 0.746, W 0.557, V 0.26, R 0.854, N 0.832, E 0.209, G 0.881, A 0.878, C 0.855, M -0.432
E171: P 1.23, L 1.59, D 0.998, I 1.63, Q 1.15, H 1.64, G 1.27, A 1.77, K 0.709, F 2.29, C 1.96, W 1.93, Y 1.41, T 1.52, R 1.22, N 1.05, M 2.07, V 1.65, S 1.96
A170: Q 0.496, M 0.0569, F 1.69, T 0.748, L 0.356, R 1.29, D 0.761, K 1.97, I 0.784, W 1.84, P 0.929, G 0.778, C 1.24, E 0.67, V 0.782, H 1.86, S 0.78, N 1.2, Y 2.08
A186: D 1.11, C 1.29, F -0.0353, E 0.734
P176: G 0.765, Y 1.88, M 2.1, S 1.4, F 1.46, A 1.33, D -0.465, N 0.411, K 1.33, I 1.65, E 0.297, C 2.34, H 1.07, L 1.6, V 1.54, W 1.08, T 0.957, R 1.63
L175: Y 1.5, I 0.709, S 0.686, E -0.0357, A 0.583, F 1.16, N 0.295, Q 1.1, V 0.629, G 0.614, T 0.916, W 1.8, D 1.04, H 1.33, K 0.766, R 1.06, M 1.05, P 0.463, C 0.818
S169: C 0.968, P 1.73, F 1.46, M 0.503, K 1.77, N 1.18, T -0.214, E 0.245, G 1.42, R 0.711, Y 1.62, W 1.57, L 1.7, I 1.2, V 1.35, Q 0.286, D 1.22, A 0.813
N179: F 0.503, E 1.14, M 1.62, C 1.26, K 1.14, V 1.49, I 1.15, R 1.52, A 1.53, D 0.42, L 0.991, G 0.991, H 1.97, T 1.79, Q -0.585, P 1.71, Y 1.15, W -2.31, S 0.818
T183: V 0.738, I 0.211, P 0.392, F 0.248, M 0.663, C 1.48, W 0.659, L 0.699, K 0.924, Y -0.205, N 1.18, H 0.652, A 0.69, S 0.952, R 0.948, Q 0.469, D 0.425, G 0.735, E 0.451
R174: W 2.14, A 0.803, P 0.727, F 1.53, Y 1.09, L 0.495, T 0.614, I 0.22, E 0.744, S 0.758, K 0.973, H 0.805, C 0.35, M 0.283, N -0.393, D 0.334, G 0.531, V 0.506, Q 0.21
G180: F -0.106, A 1.21, Y 0.548, T 0.839, E 0.208, I 0.248, D 0.474, H 1.31, R 1.63, W -0.0444, M 0.445, N 1.23, V 0.54, C 1.24, K 1.02, S 0.929, P -1.38, L 0.0432
S168: K 1.08, Y 1.37, G 0.755, T 1.06, Q 0.489, W 1.46, N 0.613, H 1.23, I 0.348, P -0.113, L 0.825, M 1.47, R 1.36, V 0.761
I181: N 1.53, S 0.834, H -0.417, C 0.211, L 0.717, M 0.958, G 0.602, R 0.684, F 1.59, Q -0.331, W 1.14, T 0.242, E 0.0205, K 0.076, A 0.485, P -1.22, V 0.788, D 0.3, Y 1.13
M184: E -0.977, F 0.676, W 0.275, N 0.0346, S 0.488, G 1.01, L 0.411, D -0.962, A 0.129, Y 0.481, T 0.688, R 0.932, I 0.983, V 0.51, Q 0.653, P 0.519
